Assay results taken from US20190055314A1 (ADAGENE, published 2019).

B1: Fab 5349 (Fab, V domains shown)
VH: EVQLVESGGGLVQPGGSLRLSCAASGYSITSGHYWAWIRQAPGKGLEWVSAISGSGSSTYYADSVKGRFTISRDNSKNTLYLQLNSLRAEDTAVYYCARGGSDTVLGDWFAYWGQGTLVTVSS
VL: DIQLTQSPSSLSASVGDRVTITCRASQGISSSLAWYQQKPGKAPKLLIYDASNLETGVPSRFSGSGSGTDFTLTISSLQPEDFATYYCQQGYSTWTFGQGTKVEIKR
notes: Fab from E. coli; also called VH24/VL24
B2: Fab 5363 (Fab, V domains shown)
VH: EVQLVESGGGLVQPGGSLRLSCAASGYSISSGHYWTWIRQAPGKGLEWVSAISGSGSSTYYADSVKGRFTISRDNSKNTLYLQLNSLRAEDTAVYYCARGGSDAVLGDWFAYWGQGTLVTVSS
VL: DIQLTQSPSSLSASVGDRVTITCRASQGVGSYLAWYQQKPGKAPKLLIYDASNLETGVPSRFSGSGSGTDFTLTISSLQPEDFATYYCQQGYQLWTFGQGTKVEIKR
notes: Fab from E. coli; also called VH29/VL29
B3: Fab 3760 (Fab, V domains shown)
VH: EVQLVESGGGLVQPGGSLRLSCAASGFTFTSYGIHWVRQAPGKGLEWVSGISGAGDTTYYADSVKGRFTISRDNSKNTLYLQLNSLRAEDTAVYYCARERDYDFDYWGQGTLVTVSS
VL: DIQLTQSPSSLSASVGDRVTITCRASQSVSSYLAWYQQKPGKAPKLLIYDASNLETGVPSRFSGSGSGTDFTLTISSLQPEDFATYYCQQSYSTSHTFGQGTKVEIKR
notes: Fab from E. coli; also called VH1/VL1
B4: Fab 4076 (Fab, V domains shown)
VH: EVQLVESGGGLVQPGGSLRLSCAASGYSITSGYHWGWIRQAPGKGLEWVSAISGAGGSTYYADSVKGRFTISRDNSKNTLYLQLNSLRAEDTAVYYCARDGYGGSYFDYWGQGTLVTVSS
VL: DIQLTQSPSSLSASVGDRVTITCQASQDISTFLAWYQQKPGKAPKLLIYDASSLESGVPSRFSGSGSGTDFTLTISSLQPEDFATYYCQQAYSIWTFGQGTKVEIKR
notes: Fab from E. coli; also called VH4/VL4
B5: Fab 5346 (Fab, V domains shown)
VH: EVQLVESGGGLVQPGGSLRLSCAASGFSLSTGGVGVGWIRQAPGKGLEWVSGISGYGSTTYYADSVKGRFTISRDNSKNTLYLQLNSLRAEDTAVYYCAREGSDAVAGDWFDYWGQGTLVTVSS
VL: DIQLTQSPSSLSASVGDRVTITCRASQDIRSYLAWYQQKPGKAPKLLIYDASNRATGIPSRFSGSGSGTDFTLTISSLQPEDFATYYCQQGYSIWTFGQGTKVEIKR
notes: Fab from E. coli; also called VH22/VL22
B6: Fab 5407 (Fab, V domains shown)
VH: EVQLVESGGGLVQPGASLRLSCAASGFSLSTGGVGVAWIRQAPGKGLEWVSSISGYGSTTYYADSVKGRFTISRDNSKNTLYLQLNSLRAEDTAVYYCAREGSDAVLGDWFGYWGQGTLVTVSS
VL: DIQLTQSPSSLSASVGDRVTITCQASQDITTYLAWYQQKPGKAPKLLIYDASNRATGIPSRFSGSGSGTDFTLTISSLQPEDFATYYCQQGYYLWTFGQGTKVEIKR
notes: Fab from E. coli; also called VH35/VL35
B7: Fab 5417 (Fab, V domains shown)
VH: EVQLVESGGGLVQPGGSLRLSCAASGFSLSTSGVGVAWIRQAPGKGLEWVSSISGAGGTTYYADSVKGRFTISRDNSKNTLYLQLNSLRAEDTAVYYCARGGSTAVTGDWFDYWGQGTLVTVSS
VL: DIQLTQSPSSLSASVGDRVTITCRASQGISPYLAWYQQKPGKAPKLLIYDASNRATGIPSRFSGSGSGTDFTLTISSLQPEDFATYYCQQGYSLWTFGQGTKVEIKR
notes: Fab from E. coli; also called VH39/VL39
B8: Fab 7080 (Fab, V domains shown)
VH: EVQLVESGGGLVQPGGSLRLSCAASGFSLSTGGVGVGWIRQAPGKGLEWVSYISGAGGTTYYADSVKGRFTISRDNSKNTLYLQLNSLRAEDTAVYYCAREGSDTVLGDWFAYWGQGTLVTVSS
VL: DIQLTQSPSSLSASVGDRVTITCRASQGISSYLAWYQQKPGKAPKLLIYDASNLETGVPSRFSGSGSGTDFTLTISSLQPEDFATYYCQQYYTTPLTFGQGTKVEIKR
notes: Fab from E. coli; also called VH43/VL43
B9: Fab 7077 (Fab, V domains shown)
VH: EVQLVESGGGLVQPGGSLRLSCAASGFSLSTGGVGVAWIRQAPGKGLEWVSYISGSGDTTYYADSVKGRFTISRDNSKNTLYLQLNSLRAEDTAVYYCAREGSDTVVGDWFAYWGQGTLVTVSS
VL: DIQLTQSPSSLSASVGDRVTITCRASQGISSYLAWYQQKPGKAPKLLIYDASNLETGVPSRFSGSGSGTDFTLTISSLQPEDFATYYCQQYYTTPLTFGQGTKVEIKR
notes: Fab from E. coli; also called VH40/VL40
B10: Fab 7078 (Fab, V domains shown)
VH: EVQLVESGGGLVQPGGSLRLSCAASGFSLSTGGVGVGWIRQAPGKGLEWVSYISGDGDTTYYADSVKGRFTISRDNSKNTLYLQLNSLRAEDTAVYYCAREGSDTVAGDWFAYWGQGTLVTVSS
VL: DIQLTQSPSSLSASVGDRVTITCRASQGISSYLAWYQQKPGKAPKLLIYDASNLETGVPSRFSGSGSGTDFTLTISSLQPEDFATYYCQQYYTTPLTFGQGTKVEIKR
notes: Fab from E. coli; also called VH41/VL41
B11: Fab 7079 (Fab, V domains shown)
VH: EVQLVESGGGLVQPGGSLRLSCAASGFSLSTSGVGVAWIRQAPGKGLEWVSSISGYGGTTYYADSVKGRFTISRDNSKNTLYLQLNSLRAEDTAVYYCAREGSDTVLGDWFAYWGQGTLVTVSS
VL: DIQLTQSPSSLSASVGDRVTITCRASQGISSYLAWYQQKPGKAPKLLIYDASNLETGVPSRFSGSGSGTDFTLTISSLQPEDFATYYCQQYYTTPLTFGQGTKVEIKR
notes: Fab from E. coli; also called VH42/VL42
B12: Fab 7081 (Fab, V domains shown)
VH: EVQLVESGGGLVQPGGSLRLSCAASGFSLSTGGVGVGWIRQAPGKGLEWVSYISGAGGTTYYADSVKGRFTISRDNSKNTLYLQLNSLRAEDTAVYYCAREGSDAVLGDWFAYWGQGTLVTVSS
VL: DIQLTQSPSSLSASVGDRVTITCRASQGISSYLAWYQQKPGKAPKLLIYDASNLETGVPSRFSGSGSGTDFTLTISSLQPEDFATYYCQQYYTTPLTFGQGTKVEIKR
notes: Fab from E. coli; also called VH44/VL44
B13: Fab 7087 (Fab, V domains shown)
VH: EVQLVESGGGLVQPGGSLRLSCAASGFSLSTGGVGVGWIRQAPGKGLEWVSYISGDGDTTYYADSVKGRFTISRDNSKNTLYLQLNSLRAEDTAVYYCAREGSTAVLGDWFAYWGQGTLVTVSS
VL: DIQLTQSPSSLSASVGDRVTITCRASQGISSYLAWYQQKPGKAPKLLIYDASNLETGVPSRFSGSGSGTDFTLTISSLQPEDFATYYCQQYYTTPLTFGQGTKVEIKR
notes: Fab from E. coli; also called VH45/VL45
B14: Fab 7088 (Fab, V domains shown)
VH: EVQLVESGGGLVQPGGSLRLSCAASGFSLSTSGVGVGWIRQAPGKGLEWVSYISGDGGSTYYADSVKGRFTISRDNSKNTLYLQLNSLRAEDTAVYYCAREGSTAVVGDWFAYWGQGTLVTVSS
VL: DIQLTQSPSSLSASVGDRVTITCRASQGISSYLAWYQQKPGKAPKLLIYDASNLETGVPSRFSGSGSGTDFTLTISSLQPEDFATYYCQQYYTTPLTFGQGTKVEIKR
notes: Fab from E. coli; also called VH46/VL46
B15: Fab 7090 (Fab, V domains shown)
VH: EVQLVESGGGLVQPGGSLRLSCAASGFSLSTGGVGVAWIRQAPGKGLEWVSYISGYGGTTYYADSVKGRFTISRDNSKNTLYLQLNSLRAEDTAVYYCAREGSTAVLGDWFAYWGQGTLVTVSS
VL: DIQLTQSPSSLSASVGDRVTITCRASQGISSYLAWYQQKPGKAPKLLIYDASNLETGVPSRFSGSGSGTDFTLTISSLQPEDFATYYCQQYYSTPLTFGQGTKVEIKR
notes: Fab from E. coli; also called VH47/VL47
B16: Fab 7092 (Fab, V domains shown)
VH: EVQLVESGGGLVQPGGSLRLSCAASGFSLSTSGMGVGWIRQAPGKGLEWVSYISGYGGTTYYADSVKGRFTISRDNSKNTLYLQLNSLRAEDTAVYYCAREGSDVVAGDWFAYWGQGTLVTVSS
VL: DIQLTQSPSSLSASVGDRVTITCRASQGISSYLAWYQQKPGKAPKLLIYDASNLETGVPSRFSGSGSGTDFTLTISSLQPEDFATYYCQQYYSTPLTFGQGTKVEIKR
notes: Fab from E. coli; also called VH48/VL48
B17: Fab 7100 (Fab, V domains shown)
VH: EVQLVESGGGLVQPGGSLRLSCAASGFSLSTSGVGVGWIRQAPGKGLEWVSYISGDGGSTYYADSVKGRFTISRDNSKNTLYLQLNSLRAEDTAVYYCAREGSDTVLGDWFAYWGQGTLVTVSS
VL: DIQLTQSPSSLSASVGDRVTITCRASQGISSYLAWYQQKPGKAPKLLIYDASNLETGVPSRFSGSGSGTDFTLTISSLQPEDFATYYCQQYYSTPLTFGQGTKVEIKR
notes: Fab from E. coli; also called VH50/VL50
B18: Fab 7105 (Fab, V domains shown)
VH: EVQLVESGGGLVQPGGSLRLSCAASGFSLSTGGVGVGWIRQAPGKGLEWVSYISGAGSTTYYADSVKGRFTISRDNSKNTLYLQLNSLRAEDTAVYYCAREGSDTVLGDWFAYWGQGTLVTVSS
VL: DIQLTQSPSSLSASVGDRVTITCRASQGISSYLAWYQQKPGKAPKLLIYDASNLETGVPSRFSGSGSGTDFTLTISSLQPEDFATYYCQQYYSTPLTFGQGTKVEIKR
notes: Fab from E. coli; also called VH51/VL51
B19: Fab 7109 (Fab, V domains shown)
VH: EVQLVESGGGLVQPGGSLRLSCAASGFSLSTSGVGVSWIRQAPGKGLEWVSYISGSGDTTYYADSVKGRFTISRDNSKNTLYLQLNSLRAEDTAVYYCAREGSDAVLGDWFAYWGQGTLVTVSS
VL: DIQLTQSPSSLSASVGDRVTITCRASQGISSYLAWYQQKPGKAPKLLIYDASNLETGVPSRFSGSGSGTDFTLTISSLQPEDFATYYCQQYYSTPLTFGQGTKVEIKR
notes: Fab from E. coli; also called VH52/VL52

These binders were tested against T1, CD137-hisFc fusion protein (Sino Biological Cat 10041-H03H) (human, UniProt Q07011 24-186) (assay: BLI Octet, Fab).
T1 construct: Bought; also called recombinant human CD137 (fused with human Fc and His tag); not shown: His tag and human Fc
Binder B1 has a Kd of 6.2 nM, a koff of 0.00101 s⁻¹ and a kon of 162000 M⁻¹ s⁻¹.
B2 showed a Kd of 9.87 nM, a koff of 0.000826 s⁻¹ and a kon of 83700 M⁻¹ s⁻¹.
For B3, the Kd was 12.6 nM, the koff was 0.00444 s⁻¹ and the kon was 352000 M⁻¹ s⁻¹.
B4 showed a Kd of 7.44 nM, a koff of 0.000475 s⁻¹ and a kon of 63800 M⁻¹ s⁻¹.
With B5 the Kd was 16.1 nM, the koff was 0.00977 s⁻¹ and the kon was 605000 M⁻¹ s⁻¹.
For B6, the Kd was 1.76 nM, the koff was 0.000437 s⁻¹ and the kon was 248000 M⁻¹ s⁻¹.
B7 gave a Kd of 40.4 nM, a koff of 0.00231 s⁻¹ and a kon of 57200 M⁻¹ s⁻¹.
In the case of B8, the Kd is reported as 24.4 nM, the koff is reported as 0.00746 s⁻¹ and the kon is reported as 306000 M⁻¹ s⁻¹.
B9 showed a Kd of 18.8 nM, a koff of 0.00934 s⁻¹ and a kon of 498000 M⁻¹ s⁻¹.
For B10, the Kd was 25.2 nM, the koff was 0.0087 s⁻¹ and the kon was 345000 M⁻¹ s⁻¹.
Work on B11 yielded a Kd of 29.9 nM, a koff of 0.003 s⁻¹ and a kon of 100000 M⁻¹ s⁻¹.
For B12, the Kd was 43.1 nM, the koff was 0.0123 s⁻¹ and the kon was 287000 M⁻¹ s⁻¹.
With B13 the Kd was 69.6 nM, the koff was 0.00855 s⁻¹ and the kon was 123000 M⁻¹ s⁻¹.
For B14, the Kd was 43.6 nM, the koff was 0.0111 s⁻¹ and the kon was 255000 M⁻¹ s⁻¹.
B15 showed a Kd of 55.5 nM, a koff of 0.0173 s⁻¹ and a kon of 312000 M⁻¹ s⁻¹.
Binder B16 has a Kd of 45.7 nM, a koff of 0.0197 s⁻¹ and a kon of 431000 M⁻¹ s⁻¹.
B17 gave a Kd of 35 nM, a koff of 0.0162 s⁻¹ and a kon of 462000 M⁻¹ s⁻¹.
With B18 the Kd was 33.3 nM, the koff was 0.011 s⁻¹ and the kon was 330000 M⁻¹ s⁻¹.
B19 showed a Kd of 32 nM, a koff of 0.00555 s⁻¹ and a kon of 173000 M⁻¹ s⁻¹.
